Results taken from paper doi:10.1101/2024.10.24.620088.
Several values for one entry are separate records, joined by “and”; a condition that tells them apart may be missing. Equal entries are not always repeated. Where two headings read alike, the source gives them in different places.

Assays:
Experiment in all cases: cryo-EM structure
[1] = target: HerA from Bacillus ap. HMH5848 (Bacillus ap. HMH5848)
[2] = target: HerA from Bacillus ap. HMH5848 (Bacillus ap. HMH5848); remark: listed apart in the source
[3] = target: DUF4297 from Bacillus ap. HMH5848 (Bacillus ap. HMH5848)
[4] = target: DUF4297 from Bacillus ap. HMH5848 (Bacillus ap. HMH5848); remark: listed apart in the source

| stoichiometry N [1] | stoichiometry N [2] | stoichiometry N [3] | stoichiometry N [4] | Substance |
| --- | --- | --- | --- | --- |
| 6 | 6 | – | – | HerA from Bacillus ap. HMH5848 (enzyme) |
| – | – | 12 and 4 and 6 | 12 | DUF4297 from Bacillus ap. HMH5848 (natural protein) |
